Assay [1] addresses T1, PDGFRβ-Fc (residues 1-314 of PDGFR-β fused to the Fc region of mouse IgG2a) (human; mouse, UniProt P09619 33-314).
T1 construct: range 1-314; Expressed in FreeStyle 293-F cells; also called PDGRβ-Fc; PDGFR-Fc; not shown: Fc region of mouse IgG2a
Description: yeast surface display titration, flow cytometry; PDGFRβ-Fc (bivalent). As for the experimental part: (§1) Cells were incubated in large enough volumes to avoid ligand depletion and appropriate time to reach equilibrium. During the last hour of incubation, yeast were incubated with 1:250 dilution of chicken anti-c-Myc (Invitrogen) in PBSA. […] Yeast were washed, pelleted, and resuspended in PBSA immediately before analysis by flow cytometry using BD FACSCalibur or BD Accuri C6. Flow cytometry data were analyzed using FlowJo (v7.6.1 and v10, Treestar) or BD Accuri C6 software. Statistical analysis was performed using GraphPad Prism 6.
For orientation: A flow cytometer gives signals particle by particle.

The target in assay [2] is T2, PDGFRβ-His (residues 1-314 of PDGFR-β with C-terminal hexahistidine tag) (human, UniProt P09619 33-314).
T2 construct: range 1-314; Monovalent form, expressed in FreeStyle 293-F cells; also called PDGRβ-His; PDGFR-His
T2 sequence (P09619 other isoform, or with tags, fused parts or gaps limits assumed, form in doubt): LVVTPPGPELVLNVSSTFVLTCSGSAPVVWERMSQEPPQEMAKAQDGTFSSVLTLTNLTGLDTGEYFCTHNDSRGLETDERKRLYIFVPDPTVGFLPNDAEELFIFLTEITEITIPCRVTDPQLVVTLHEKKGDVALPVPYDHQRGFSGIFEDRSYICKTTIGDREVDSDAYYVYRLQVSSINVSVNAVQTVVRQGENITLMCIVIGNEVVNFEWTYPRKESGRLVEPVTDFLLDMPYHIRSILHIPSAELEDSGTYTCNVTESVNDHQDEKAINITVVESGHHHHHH
Description: yeast surface display, flow cytometry titration of PDGFRβ-His. How it is done:
as §1

Assay [3] addresses T2, PDGFRβ-His (residues 1-314 of PDGFR-β …). Kind of assay: yeast surface display titration, flow cytometry; PDGFRβ-His (monovalent). How it is done:
We tested the monovalent version of PDGFR (PDGRβ-His) to remove any avidity effects that may affect the measurements.
as §1

Assay [4] has the same target. Description: yeast surface display titration, flow cytometry. As for the experimental part: as §1
Assay [5] deals with T3, VEGFR2-His (residues 1-764 of VEGFR2, Ig-like domains 1-7, with hexahistidine tag) (human, UniProt P35968 20-764).
T3 construct: range 1-764; Monomeric form, expressed in FreeStyle 293-F cells; also called VEGFR-His
T3 sequence (P35968 other isoform, or with tags, fused parts or gaps limits assumed, form in doubt): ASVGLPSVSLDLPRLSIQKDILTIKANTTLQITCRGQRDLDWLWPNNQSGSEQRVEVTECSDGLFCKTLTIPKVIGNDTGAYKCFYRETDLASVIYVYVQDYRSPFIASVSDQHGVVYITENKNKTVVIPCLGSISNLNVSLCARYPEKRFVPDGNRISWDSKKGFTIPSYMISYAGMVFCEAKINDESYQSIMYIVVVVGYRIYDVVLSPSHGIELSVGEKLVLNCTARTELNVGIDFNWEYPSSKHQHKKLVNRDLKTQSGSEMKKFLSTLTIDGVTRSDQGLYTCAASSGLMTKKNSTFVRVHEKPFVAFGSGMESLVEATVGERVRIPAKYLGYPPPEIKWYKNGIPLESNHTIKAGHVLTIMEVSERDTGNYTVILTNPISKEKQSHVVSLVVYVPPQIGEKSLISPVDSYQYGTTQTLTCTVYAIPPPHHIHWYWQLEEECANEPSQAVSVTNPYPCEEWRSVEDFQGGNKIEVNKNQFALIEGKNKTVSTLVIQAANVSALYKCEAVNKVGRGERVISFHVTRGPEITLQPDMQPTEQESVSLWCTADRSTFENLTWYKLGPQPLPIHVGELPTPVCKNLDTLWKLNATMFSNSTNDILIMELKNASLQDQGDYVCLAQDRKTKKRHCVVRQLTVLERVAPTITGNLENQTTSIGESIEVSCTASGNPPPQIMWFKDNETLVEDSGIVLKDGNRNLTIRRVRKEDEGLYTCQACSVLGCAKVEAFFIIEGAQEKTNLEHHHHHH
Kind of assay: yeast surface display titration, flow cytometry. How it is done: as §1

Assay [6] addresses T4, soluble PDGFRβ (Fc or His format not stated for the experiment) (human, UniProt P09619 33-532).
T4 construct: extracellular domain
Kind of assay: yeast surface display titration; table under the panel 'PDGFR binding', Fc or His form not given.

For assay [7], the target named is T4, soluble PDGFRβ (Fc or His format not …). Description: yeast surface display, flow cytometry titration of soluble receptor; panel 'PDGFR binding', Fc or His form not given.
Another assay addresses T5, VEGFR2-Fc (R&D Systems) (human, UniProt P35968 20-764).
T5 construct: extracellular domain; Bought reagent; also called VEGFR-Fc; not shown: Fc part, detected with anti-human-IgG (Fc specific)
Kind of assay: yeast surface display, flow cytometry titration of VEGFR2-Fc. As for the experimental part:
as §1

The target in assay [8] is T1, PDGFRβ-Fc (residues 1-314 of PDGFR-β …). Kind of assay: yeast surface display, flow cytometry titration of PDGFRβ-Fc. As for the experimental part: as §1
Assay [9] addresses T2, PDGFRβ-His (residues 1-314 of PDGFR-β …). Kind of assay: yeast surface display titration, flow cytometry. As for the experimental part: as §1
This is another data set of the same source.

In assay [10] the target is T3, VEGFR2-His (residues 1-764 of VEGFR2, …). Kind of assay: yeast surface display titration, flow cytometry. As for the experimental part: as §1
This is another data set of the same source.

Assay [11] has the same target. Kind of assay: yeast surface display, flow cytometry equilibrium titration of VEGFR2-His, normalized fluorescence. How it is done: as §1
In assay [12] the target is T6, soluble VEGFR2 (Fc or His format not stated for the experiment) (human, UniProt P35968 20-764).
T6 construct: extracellular domain
T6 sequence (P35968 20-764): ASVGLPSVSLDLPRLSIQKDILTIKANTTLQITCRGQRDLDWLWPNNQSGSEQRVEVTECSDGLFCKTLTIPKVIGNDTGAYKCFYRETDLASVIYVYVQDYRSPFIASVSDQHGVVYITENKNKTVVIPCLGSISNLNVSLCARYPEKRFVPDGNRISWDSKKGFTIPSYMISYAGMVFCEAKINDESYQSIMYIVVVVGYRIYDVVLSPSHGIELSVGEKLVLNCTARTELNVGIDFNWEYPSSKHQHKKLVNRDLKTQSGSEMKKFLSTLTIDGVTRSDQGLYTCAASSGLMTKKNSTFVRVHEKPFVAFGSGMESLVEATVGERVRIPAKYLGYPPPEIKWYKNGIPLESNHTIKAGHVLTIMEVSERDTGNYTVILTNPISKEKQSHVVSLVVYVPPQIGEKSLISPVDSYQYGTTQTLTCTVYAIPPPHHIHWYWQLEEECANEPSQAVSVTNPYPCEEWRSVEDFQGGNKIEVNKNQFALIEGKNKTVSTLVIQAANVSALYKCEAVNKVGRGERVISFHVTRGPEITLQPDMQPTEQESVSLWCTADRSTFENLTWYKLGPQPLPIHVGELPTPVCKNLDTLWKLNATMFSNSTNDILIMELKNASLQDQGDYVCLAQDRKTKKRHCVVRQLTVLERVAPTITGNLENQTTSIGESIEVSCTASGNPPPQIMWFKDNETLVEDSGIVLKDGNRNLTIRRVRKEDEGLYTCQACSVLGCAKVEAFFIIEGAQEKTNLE
Description: yeast surface display, flow cytometry dot plot: soluble receptor bound (FL1) against surface expression (FL2); receptor concentration not printed [Cont.].

For assay [13], the target named is T4, soluble PDGFRβ (Fc or His format not …). The assay is described as above.
Assay [14] concerns the target T6, soluble VEGFR2 (Fc or His format not …). Description: yeast surface display, flow cytometry dot plot: soluble receptor bound (FL1) against surface expression (FL2); receptor concentration not given.
Assay [15] addresses T7, human VEGFR on human umbilical vein endothelial cells (HUVECs) (human, UniProt P35968 20-1356).
T7 construct: The phosphorylation blots on these cells detect VEGFR2
Kind of assay: flow cytometry titration of the soluble FLAG-tagged protein on HUVECs, anti-FLAG detection. How it is done: (§2) To test binding to VEGFR, human umbilical vein endothelial cells (HUVECs) and murine angiosarcoma endothelial cells (SVR) were used.
(§3) Cell-binding assay. Varying concentrations of scPDGF, scVEGF, and PDGF/VEGF ligands were incubated with 25,000 PDGFR- or VEGFR-expressing cells in binding buffer (20 mM Tris pH 7.5 with 1 mM MgCl₂, 1 mM MnCl₂, 2 mM CaCl₂, 100 mM NaCl, and 1 mg/ml BSA) for 5 hr (BJ-5ta, NIH/3T3) or 3 hr (HUVEC, SVR) at 4° C. Cells were washed and pelleted, then incubated with 1:100 R-PE-conjugated anti-FLAG antibody (Prozyme) for 15 min on ice. Cells were washed, pelleted, and resuspended in binding buffer immediately before analysis by flow cytometry using BD Accuri C6. Flow cytometry data were analyzed using BD Accuri C6 software, and statistical analysis was performed using GraphPad Prism 6.

Assay [16] has as its target PDGFRβ on DiscoveRx PathHunter U2OS PDGFRβ reporter cells (UniProt P09619 33-1106, limits assumed). Kind of assay: cell-based or functional assay.
In assay [17] the target is T7, human VEGFR on human umbilical vein …. Description: flow cytometry on HUVECs, soluble ligand titrated 3 h at 4 C, anti-FLAG-PE. As for the experimental part:
as §2, §3

Read-outs that look alike come from different tables or passages of the source.

T4 sequence (P09619 33-532): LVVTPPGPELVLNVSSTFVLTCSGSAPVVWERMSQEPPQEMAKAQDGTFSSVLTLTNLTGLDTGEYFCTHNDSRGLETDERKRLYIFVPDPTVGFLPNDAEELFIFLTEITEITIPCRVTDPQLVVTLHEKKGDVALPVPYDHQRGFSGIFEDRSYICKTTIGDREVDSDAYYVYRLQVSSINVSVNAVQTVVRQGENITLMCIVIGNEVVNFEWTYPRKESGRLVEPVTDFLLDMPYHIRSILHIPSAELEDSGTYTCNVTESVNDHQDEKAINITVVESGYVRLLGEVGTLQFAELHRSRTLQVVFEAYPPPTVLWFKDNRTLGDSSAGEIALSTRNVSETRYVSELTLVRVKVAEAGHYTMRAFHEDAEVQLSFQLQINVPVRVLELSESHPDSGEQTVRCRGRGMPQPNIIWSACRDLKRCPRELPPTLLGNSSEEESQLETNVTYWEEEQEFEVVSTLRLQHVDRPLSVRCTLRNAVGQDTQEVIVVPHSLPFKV
T1 sequence (P09619 33-314 limits assumed, form in doubt): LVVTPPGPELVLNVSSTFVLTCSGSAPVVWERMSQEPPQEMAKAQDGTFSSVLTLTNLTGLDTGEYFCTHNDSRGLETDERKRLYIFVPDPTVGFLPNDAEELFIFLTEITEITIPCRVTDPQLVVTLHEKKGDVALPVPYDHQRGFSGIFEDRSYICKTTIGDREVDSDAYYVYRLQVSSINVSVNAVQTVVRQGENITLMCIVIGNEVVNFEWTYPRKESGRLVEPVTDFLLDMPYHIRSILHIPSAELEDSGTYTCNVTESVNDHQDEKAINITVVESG
T7 sequence (P35968 20-1356 limits assumed): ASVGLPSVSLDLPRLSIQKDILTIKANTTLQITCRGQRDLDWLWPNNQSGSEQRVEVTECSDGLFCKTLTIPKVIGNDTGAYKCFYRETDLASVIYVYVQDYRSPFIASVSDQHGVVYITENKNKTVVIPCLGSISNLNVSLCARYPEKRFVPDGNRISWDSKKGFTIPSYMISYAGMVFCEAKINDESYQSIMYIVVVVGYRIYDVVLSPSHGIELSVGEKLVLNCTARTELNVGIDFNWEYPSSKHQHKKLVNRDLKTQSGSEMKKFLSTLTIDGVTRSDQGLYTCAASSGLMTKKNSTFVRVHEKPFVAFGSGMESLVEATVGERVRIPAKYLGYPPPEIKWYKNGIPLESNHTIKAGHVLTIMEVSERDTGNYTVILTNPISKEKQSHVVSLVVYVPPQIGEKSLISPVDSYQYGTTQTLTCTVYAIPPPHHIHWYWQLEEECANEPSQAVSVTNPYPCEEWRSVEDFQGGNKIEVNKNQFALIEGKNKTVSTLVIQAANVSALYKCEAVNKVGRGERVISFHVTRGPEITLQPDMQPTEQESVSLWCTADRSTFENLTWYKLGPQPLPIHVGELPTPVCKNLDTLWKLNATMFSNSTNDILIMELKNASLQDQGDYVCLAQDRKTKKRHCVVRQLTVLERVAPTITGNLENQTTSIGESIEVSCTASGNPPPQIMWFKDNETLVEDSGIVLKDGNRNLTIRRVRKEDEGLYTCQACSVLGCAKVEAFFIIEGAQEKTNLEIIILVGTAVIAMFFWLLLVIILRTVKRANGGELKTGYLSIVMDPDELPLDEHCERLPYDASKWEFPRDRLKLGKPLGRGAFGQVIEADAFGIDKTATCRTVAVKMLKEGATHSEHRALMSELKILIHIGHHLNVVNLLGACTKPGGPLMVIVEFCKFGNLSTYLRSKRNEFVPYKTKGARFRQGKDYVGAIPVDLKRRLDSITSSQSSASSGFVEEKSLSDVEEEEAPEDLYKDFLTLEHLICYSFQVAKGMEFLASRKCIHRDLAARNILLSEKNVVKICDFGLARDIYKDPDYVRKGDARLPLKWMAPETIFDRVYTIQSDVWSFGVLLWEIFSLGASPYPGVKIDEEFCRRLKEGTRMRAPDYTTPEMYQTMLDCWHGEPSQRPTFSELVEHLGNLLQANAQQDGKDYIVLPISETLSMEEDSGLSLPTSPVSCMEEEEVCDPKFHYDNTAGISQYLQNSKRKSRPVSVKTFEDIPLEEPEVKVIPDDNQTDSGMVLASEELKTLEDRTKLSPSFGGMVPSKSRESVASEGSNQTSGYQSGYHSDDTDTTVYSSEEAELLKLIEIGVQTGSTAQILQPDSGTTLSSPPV
PDGFRβ on DiscoveRx PathHunter U2OS PDGFRβ reporter cells, sequence (P09619 33-1106 limits assumed): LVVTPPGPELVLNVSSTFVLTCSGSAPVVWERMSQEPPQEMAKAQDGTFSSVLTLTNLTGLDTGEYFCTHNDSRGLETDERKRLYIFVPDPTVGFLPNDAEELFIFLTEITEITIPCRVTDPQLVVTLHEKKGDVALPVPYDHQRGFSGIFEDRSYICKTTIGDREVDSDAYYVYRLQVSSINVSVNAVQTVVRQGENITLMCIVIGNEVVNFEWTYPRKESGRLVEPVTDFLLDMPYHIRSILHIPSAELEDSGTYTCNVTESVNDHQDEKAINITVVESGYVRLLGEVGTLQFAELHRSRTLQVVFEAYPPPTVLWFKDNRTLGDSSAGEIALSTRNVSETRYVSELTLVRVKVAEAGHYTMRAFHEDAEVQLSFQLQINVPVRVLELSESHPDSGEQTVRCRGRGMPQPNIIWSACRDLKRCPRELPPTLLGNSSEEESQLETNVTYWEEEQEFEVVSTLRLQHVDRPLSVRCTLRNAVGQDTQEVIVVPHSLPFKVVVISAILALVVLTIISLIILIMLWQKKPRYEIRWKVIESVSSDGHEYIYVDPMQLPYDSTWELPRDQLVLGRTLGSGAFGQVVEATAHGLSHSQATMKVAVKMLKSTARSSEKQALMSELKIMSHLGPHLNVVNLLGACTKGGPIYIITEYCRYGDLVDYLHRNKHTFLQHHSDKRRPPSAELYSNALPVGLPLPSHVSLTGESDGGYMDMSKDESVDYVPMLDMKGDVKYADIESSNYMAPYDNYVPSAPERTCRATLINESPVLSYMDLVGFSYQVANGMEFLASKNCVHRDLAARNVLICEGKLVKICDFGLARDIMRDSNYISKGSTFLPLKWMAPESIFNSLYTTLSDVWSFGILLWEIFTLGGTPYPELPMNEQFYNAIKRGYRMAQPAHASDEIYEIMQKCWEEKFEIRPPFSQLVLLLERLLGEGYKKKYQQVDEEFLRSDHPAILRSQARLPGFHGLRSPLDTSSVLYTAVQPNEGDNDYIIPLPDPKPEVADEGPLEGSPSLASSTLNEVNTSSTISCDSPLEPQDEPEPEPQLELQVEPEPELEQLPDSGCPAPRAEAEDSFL
T5 sequence (P35968 20-764): as the sequence (P35968 20-764) above

B1: PV6 PDGF/VEGF chimera, yeast-displayed (designed binder)
chain: IAEPAMIAECHPIETLVDIFQEYPDEIEYIFKPSCVPLMRCGGCCNNRNVQCRPTEESNITMQIMRIKPHQGQHIGEMSFLQHNKCKCETVAAGSTSGSGKSSEGKGEVVKFMDVYQRSYCKTRTEVFEISRRLIDRTNANFLVWPPCVEVQRCSGCCNDEGLECVPTQVQLRPVQVRKIEIVRKKPIFKKATVTLEDHLACKCRPKKD
As a reminder, the EC50 (read off the curve) is the concentration that produces a half-maximal response. Higher therefore signals a need for much substance. With B1, the Kd was 0.099 nM in [1]; 140 nM in assay [3]; 270 nM in assay [4]; 230 nM in assay [5]; 140 nM in [6]. Further, the 50% effective concentration (EC50 (read off the curve)) in assay [2] and in [7] was approximately 100 nM in each case.

B2: V3-3, yeast-displayed variant from the Vshuf library (designed binder)
chain: IAEPAVIAECHPIETLVDILQEYPDEIGYIFKPSCVPLMRCGGCCNNRNVQCRPTEESNITMQIMRIKPHRGQHIGEMSFLQHNKCKCETVAAGSTSGSGKSSEGKGEVVKFMDVYQRSYCKTRTEVFEISRRLIDRTNANFLVWPPCVEVQRCSGCCNHEGLECVPTQVQLRPVQVRKIEIVRKKPIFKKATVTLEDHLACECRPKKD
As for B2, the binding result with VEGFR2-Fc (R&D Systems) is listed as “binds”.

B3: PV6 K87R variant, yeast-displayed (designed binder)
chain: IAEPAMIAECHPIETLVDIFQEYPDEIEYIFKPSCVPLMRCGGCCNNRNVQCRPTEESNITMQIMRIKPHQGQHIGEMSFLQHNKCRCETVAAGSTSGSGKSSEGKGEVVKFMDVYQRSYCKTRTEVFEISRRLIDRTNANFLVWPPCVEVQRCSGCCNDEGLECVPTQVQLRPVQVRKIEIVRKKPIFKKATVTLEDHLACKCRPKKD
notes: Clone from the PDGFR sorts of the error-prone library made from PV6; also called PV K87R
Regarding B3, the Kd in assay [1] amounted to 0.049 nM; in assay [3], 6.4 nM. Moreover, the “EC50 (read off the curve)” value in assay [2] is approximately 6 nM; in assay [8], approximately 0.05 nM.

B4: PV6 I182F variant, yeast-displayed (designed binder)
chain: IAEPAMIAECHPIETLVDIFQEYPDEIEYIFKPSCVPLMRCGGCCNNRNVQCRPTEESNITMQIMRIKPHQGQHIGEMSFLQHNKCKCETVAAGSTSGSGKSSEGKGEVVKFMDVYQRSYCKTRTEVFEISRRLIDRTNANFLVWPPCVEVQRCSGCCNDEGLECVPTQVQLRPVQVRKIEFVRKKPIFKKATVTLEDHLACECRPKKD
notes: Clone from the PDGFR sorts of the error-prone library made from PV6; also called PV I182F
With B4, the Kd in [1] worked out at 0.067 nM; in [3], 2.5 nM. Further, the “EC50 (read off the curve)” value is approximately 3 nM in assay [2] and approximately 0.07 nM in assay [8].

B5: PVAM-S (PV R32A), yeast-displayed (designed binder)
chain: IAEPAMIAECHPIETLVDILQEYPDEIGYIFKPSCVPLMRCGGCCNNRNVQCRPTEESNITMQIMRIKPHRGQHIGEMSFLQHNKCRCETVAAGSTSGSGKSSEGKGEVVKFMDVYQRSYCKTRTEVFEISRRLIDATNANFLVWPPCVEVQRCSGCCNHEGLECVPTQVQLRPVQVRKIEFVRKKPIFKKATVTLEDHLACECRPKKD
notes: PVAM with R137A (R32A in PDGF-B numbering); also called R137A variant
On to B5, for which the figures for the Kd in [9] and in assay [10] were 0.34 nM and 1 nM, respectively. Also, the “EC50 (read off the curve)” value in [11] was approximately 1 nM.

B6: PV3 PDGF/VEGF hybrid construct, yeast-displayed (designed binder)
chain: IAEPAMIAECKTRTEVVDIFQEYPDEIEYIFKPSCVPLMRCSGCCNNRNVQCRPTEESNITMQIMRIKPHQGQHIGEMSFLQHLACKCETVAAGSTSGSGKSSEGKGEVVKFMDVYQRSYCHPIETLFEISRRLIDRTNANFLVWPPCVEVQRCGGCCNDEGLECVPTQVQLRPVQVRKIEIVRKKPIFKKATVTLEDHNKCECRPKKD
notes: only PV1
Turning to B6, the binding result in assay [12] and in assay [13] was “no binding” each time.

B7: PV5 PDGF/VEGF hybrid construct, yeast-displayed (designed binder)
chain: IAEPAMIAECKTRTEVFEIFQEYPDEIEYIFKPSCVPLMRCSGCCNNRNVQCRPTEESNITMQIMRIKPHQGQHIGEMSFLQHLACKCETVAAGSTSGSGKSSEGKGEVVKFMDVYQRSYCHPIETLVDISRRLIDRTNANFLVWPPCVEVQRCGGCCNDEGLECVPTQVQLRPVQVRKIEIVRKKPIFKKATVTLEDHNKCECRPKKD
notes: only PV1
On to B7, for which the binding result in [12] and in [13] was “no binding” in each case.

B8: PV8 PDGF/VEGF hybrid construct, yeast-displayed (designed binder)
chain: IAEPAMIAECKTIETLVDIFQEYPDEIEYIFKPSCVPLMRCSGCCNNRNVQCRPTEESNITMQIMRIKPHQGQHIGEMSFLQHLACKCETVAAGSTSGSGKSSEGKGEVVKFMDVYQRSYCHPRTEVFEISRRLIDRTNANFLVWPPCVEVQRCGGCCNDEGLECVPTQVQLRPVQVRKIEIVRKKPIFKKATVTLEDHNKCECRPKKD
notes: the text names only PV6
For B8, the binding result in [14] is listed as “binds”.

B9: PV7 PDGF/VEGF hybrid construct, yeast-displayed (designed binder)
chain: IAEPAMIAECKTRETLVDIFQEYPDEIEYIFKPSCVPLMRCSGCCNNRNVQCRPTEESNITMQIMRIKPHQGQHIGEMSFLQHNKCKCETVAAGSTSGSGKSSEGKGEVVKFMDVYQRSYCHPITEVFEISRRLIDRTNANFLVWPPCVEVQRCGGCCNDEGLECVPTQVQLRPVQVRKIEIVRKKPIFKKATVTLEDHLACECRPKKD
notes: the text names only PV6
As to B9, the binding result in assay [14] is on record as “binds”.

B10: PV4 PDGF/VEGF hybrid construct, yeast-displayed (designed binder)
chain: IAEPAMIAECKTRTEVFDIFQEYPDEIEYIFKPSCVPLMRCSGCCNNRNVQCRPTEESNITMQIMRIKPHQGQHIGEMSFLQHLACKCETVAAGSTSGSGKSSEGKGEVVKFMDVYQRSYCHPIETLVEISRRLIDRTNANFLVWPPCVEVQRCGGCCNDEGLECVPTQVQLRPVQVRKIEIVRKKPIFKKATVTLEDHNKCECRPKKD
notes: only PV1
For the molecule B10, the binding result in assay [12] and in assay [13] was “no binding” in each case.

B11: PVAM-S (PV R32A), soluble, FLAG and hexahistidine tags (designed binder)
chain: DYKDDDDKIAEPAMIAECHPIETLVDILQEYPDEIGYIFKPSCVPLMRCGGCCNNRNVQCRPTEESNITMQIMRIKPHRGQHIGEMSFLQHNKCRCETVAAGSTSGSGKSSEGKGEVVKFMDVYQRSYCKTRTEVFEISRRLIDATNANFLVWPPCVEVQRCSGCCNHEGLECVPTQVQLRPVQVRKIEFVRKKPIFKKATVTLEDHLACECRPKKDHHHHHH
notes: Secreted from S. cerevisiae YVH10 and treated with Endo Hf
On to B11, for which the “EC50 (read off the curve)” value in assay [15] is approximately 0.7 nM. Besides, the “IC50 of inhibition of stimulation by 0.5 nM PDGF-BB, PathHunter PDGFRβ reporter cells” value in assay [16] worked out at 1.4 nM. Moreover, the Kd in assay [17] stood at 0.53 nM.
